# Key:
# [1] = biological target: T1, human LIGHT (TNFSF14), full length, membrane-bound (214E allele) (human, UniProt O43557 1-240); test: flow cytometry, transiently transfected HEK293FF cells
# T1 construct: also called membrane LIGHT; human membrane LIGHT
# Excerpt: (§1) In order to compare the cross-reactivity of the mAbs to both human and cynomolgus LIGHT, transiently transfected human or cynomolgus LIGHT-HEK293FF cells were utilised in which approximately 50% of the cells expressed LIGHT and bound mAb was detected with goat anti-human IgG FITC. The EC50 of each mAb is depicted in Table 6 after correction for background binding to untransfected cells. (Note that when the relationship between receptor occupancy and response is linear, EC50 may be equivalent or substantially equivalent to KD).
# Target sequence in this assay (O43557 whole entry K214E): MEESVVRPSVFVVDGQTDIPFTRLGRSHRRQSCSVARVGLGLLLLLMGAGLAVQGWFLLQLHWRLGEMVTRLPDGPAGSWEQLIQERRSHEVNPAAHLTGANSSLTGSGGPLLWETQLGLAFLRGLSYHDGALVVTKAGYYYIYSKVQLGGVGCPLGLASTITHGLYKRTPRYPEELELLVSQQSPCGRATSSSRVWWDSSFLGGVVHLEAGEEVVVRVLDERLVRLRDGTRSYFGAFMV
# [2] = biological target: T2, cynomolgus (Macaca fascicularis) LIGHT, membrane-bound (cynomolgus (Macaca fascicularis), UniProt E9NVF7 1-240); test: as above
# T2 construct: whole, on cells; also called cynomolgus membrane LIGHT; HEK293FF-cynomolgus LIGHT cells
# T2 sequence (E9NVF7 entry or part of it): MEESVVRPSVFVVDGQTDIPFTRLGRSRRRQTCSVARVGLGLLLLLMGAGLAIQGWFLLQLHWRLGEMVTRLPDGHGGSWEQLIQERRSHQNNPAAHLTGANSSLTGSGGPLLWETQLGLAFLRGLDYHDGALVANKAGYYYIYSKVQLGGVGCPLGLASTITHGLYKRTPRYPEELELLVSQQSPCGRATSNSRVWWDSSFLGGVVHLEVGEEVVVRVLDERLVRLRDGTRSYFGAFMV
# Excerpt: as §1
# [3] = biological target: T1, human LIGHT (TNFSF14), full length, …; test: DcR3-His (1 nM) competition, EL4-LIGHT, flow cytometry; 1.23 nM
# Description: (§2) EL4-LIGHT cells (0.25×10⁶) were preincubated with anti-membrane LIGHT mAbs (0-300 nM) for 15 min at 4° C. followed by incubation with DcR3-His tagged (1 nM, Creative BioMart; ref: TNFRSF6B-552H, lot: 962512) for 30 min at 4° C. The samples were then incubated with mouse anti-histag antibody (diluted 1:500, Biolegend, cat. no. 652502) for 30 minutes at 4° C., followed by incubation with anti-mouse APC (dil 1:500, BDBiosciences, cat. no. 550826) for 30 minutes at 4° C. The tubes were washed three times after each of the detection antibody stages and flow cytometry analysis was performed. Specific mean fluorescence intensity (MFI) obtained from the binding of DcR3-His to LIGHT on EL4 cells were used to determine the levels of competition binding.
# (§3) In humans, LIGHT is neutralized by DcR3, a unique soluble member of the TNFR superfamily, which tightly binds LIGHT (both soluble and membrane forms) and inhibits its interactions with HVEM and LTβR. A major binding determinant for DcR3 neutralization is the region T170-E178 on LIGHT (Liu et al. Structure 2014: 9; 1252-1262). […] In contrast the anti-LIGHT mAb F19, (from EP2292663) which binds both soluble LIGHT and membrane LIGHT equally well completely displaces DcR3 from binding to membrane LIGHT highlighting a surprising an important functional difference between the anti-membrane LIGHT mAbs of this invention and other neutralizing anti-LIGHT mAbs that have been raised against or screened against soluble LIGHT.
# Target sequence in this assay (O43557 whole entry K214E): as the sequence (O43557 whole entry K214E) above
# [4] = biological target: T1, human LIGHT (TNFSF14), full length, …; test: competition with biotin-HVEM:Fc, HEK293FF LIGHT cells, flow cytometry
# Description: The ability of the 7 chimeric mAbs to block biotin-HVEM:Fc and biotin-LTβR:Fc fusion proteins to cell surface expressed LIGHT using a flow cytometric based assay is shown in FIGS. 1A and 1B respectively. In these experiments, graded amounts of each antibody were added to the HEK293FF cells transiently transfected with LIGHT with a 50% saturating amount of the receptor fusion protein. As shown, each of the antibodies blocked either receptor fusion protein from binding LIGHT, in contrast to the irrelevant antibody control which had no effect on either Fc-receptor fusion protein binding. In each experiment, all antibodies blocked receptor binding in a dose dependent manner enabling analysis by non-linear regression to determine the IC50 dose as shown in Table 11A.
# Target sequence in this assay (O43557 whole entry K214E): as above
# [5] = biological target: T1, human LIGHT (TNFSF14), full length, …; test: DcR3-His (1 nM) competition, EL4-LIGHT, flow cytometry; 0.41 nM
# Description: as §2, §3
# Target sequence in this assay (O43557 whole entry K214E): as above
# [6] = biological target: T1, human LIGHT (TNFSF14), full length, …; test: DcR3-His (1 nM) competition, EL4-LIGHT, flow cytometry; 33.3 nM
# Description: as §2, §3
# Target sequence in this assay (O43557 whole entry K214E): as above
# [7] = biological target: T1, human LIGHT (TNFSF14), full length, …; test: DcR3-His (1 nM) competition, EL4-LIGHT, flow cytometry; 100 nM
# Description: as §2, §3
# Target sequence in this assay (O43557 whole entry K214E): as above
# [8] = biological target: T1, human LIGHT (TNFSF14), full length, …; test: DcR3-His (1 nM) competition, EL4-LIGHT, flow cytometry; 11.1 nM
# Description: as §2, §3
# [9] = biological target: T1, human LIGHT (TNFSF14), full length, …; test: DcR3-His (1 nM) competition, EL4-LIGHT, flow cytometry; 3.7 nM
# Description: as §2, §3
Binder,EC50 [1] [nM],EC50 [2] [nM],"DcR3-His binding, % of irrelevant mAb [3] [%]",IC50 [4] [nM],"DcR3-His binding, % of irrelevant mAb [5] [%]","DcR3-His binding, % of irrelevant mAb [6] [%]","DcR3-His binding, % of irrelevant mAb [7] [%]","DcR3-His binding, % of irrelevant mAb [8] [%]","DcR3-His binding, % of irrelevant mAb [9] [%]"
"3A07 (antibody, human IgG4, V domains shown, chimeric human IgG4 (S-to-P, L-to-E at 248), human CL; also called Parental 3A07) VH: QVQLQQSGAELVRPGAPVTLSCKASDYTFTDSEIHWVKQTPVHGLEWIGEIDPETGGTAYNQKFKGKATLTADKSSSTAYMELRSLTSEDSAVYYCSRETDYFFDYWGQGTTLTVSS VL: ENVLTQSPAIMSASPGEKVTMTCSASSSVSYMYWYQQRPGSSPRLLIYDTSNLASGVPVRFSGSGSGTSYSLTISRMEAEDAATYYCQQWSSYPLTFGSGTKLEIK",0.1,7.6,90.6,2.5,102,67.5,64.2,75.8,89.6
"3B04 (antibody, human IgG4, V domains shown, chimeric: mouse variable domains on human IgG4 HC (S-to-P and L-to-E at 248) and human CL; also called Parental 3B04; 3B04 chimeric) VH: QVQLQQPGAELVRPGASVTLSCKASGYTFTDYEMHWVKQTPVHGLEWIGEIDPETGDTAYSQKFKGKATLTADKSSSTAYMEFRSLTSEDSAVYYCSRETDYFFDYWGQGTTLTVSS VL: DIQMTQTPASLSASVGETVTITCGASENIYGALNWYQRKQGKSPQLLIYGATNLADGMSSRFSGSGSGRQYSLKISSLHPDDFATYYCQNVLTTPWTFGGGTKLEIKR",0.2,0.1,75.1,1.2,94.8,85.1,75.8,78.3,78.5
"3D12 (antibody, human IgG4, V domains shown, chimeric: mouse variable domains on human IgG4 HC (S-to-P and L-to-E at 248) and human CL; also called Parental 3D12; 3D12 chimeric) VH: QVQLQQPGAELVRPGASVTLSCKASDYTFTDSEIHWVKQTPVHGLEWIGEIDPETGGTAYNQKFKGKATLTADKSSSTAYMELRSLTSEDSAVYYCSRETDYFFDYWGQGTTLTVSS VL: DIQMTQSPASLSASVGETVTITCGASENIYGALNWYQRKQGKSPQLLIYGATNLADGMSSRFSGSGSGRQYSLKISSLHPDDVATYYCQNVLSTPWTFGGGTKLEIKR",0.2,0.3,72.8,1,99.4,78.1,80.3,61.1,68.6
"2E08 (antibody, human IgG4, V domains shown, chimeric human IgG4 (S-to-P, L-to-E at 248), human CL; also called Parental 2E08) VH: QVQMKESGAELVRPGVSVKISCKGSGYTFTDYAIHWVKQSHAKTLEWIGVISTYYGDASYNQKFKGKATMTVDKSSSTAYMELARLTSDDSAIYYCARSRGEYGNYDAMDYWGQGTSVTVSS VL: DIVLTQSPASLAVSLGQRATISCKASQSVDYDGDSYMNWYQQKPGQPPKLLIYAASNLESGIPARFSGSGSGTDFTLNIHPVEEEDAATYYCQQSNEDPLTFGAGTKLELK",0.3,0.3,118,23.8,107,78.4,53.7,85.7,66.1
"2B11 (antibody, human IgG4, V domains shown, chimeric human IgG4 (S-to-P, L-to-E at 248), human CL; also called Parental 2B11) VH: EVQLVESGAELVRPGVSVKISCKGSGYTFTDYAIHWVKQSHAKSLEWIGVISTYYGDASYNQKFKGKATMTVDKSSSTAYMELARLTSEDSAIYYCARSRGEYGNYDAMDYWGQGTSVTVSS VL: DIVLTQSPASLAVSLGQRATISCRASESVDSYGNSFMHWYQQKPGQPPKLLIYRASNLESGIPARFSGSGSRTDFTLTINPVEADDVATYYCQQSNEDPYTFGGGTKLEIK",0.4,0.02,115,2.9,114,79.8,70.6,77.5,78.6

# Further binders by falling EC50 [1], results first:
EC50 [1] [nM],EC50 [2] [nM],"DcR3-His binding, % of irrelevant mAb [3] [%]",IC50 [4] [nM],"DcR3-His binding, % of irrelevant mAb [5] [%]","DcR3-His binding, % of irrelevant mAb [6] [%]","DcR3-His binding, % of irrelevant mAb [7] [%]","DcR3-His binding, % of irrelevant mAb [8] [%]","DcR3-His binding, % of irrelevant mAb [9] [%]",Binder
1.3,0.7,66.9,36.6,94.2,70.5,65,71.1,80.4,"3E09 (antibody, V domains shown, chimeric human IgG4 (S-to-P, L-to-E at 248), human CL; also called Parental 3E09) VH: EVQLVESGGGLVKPGGSLKLSCEASGFTFSDYYMYWVRQTPEKRLEWVAAIGDGGIYTYYADTVKGRFTISRDNAKNILYLQMSSLKSNDTAMYYCARGTGDGFAYWGQGTLVTVS VL: DIVLTQSPASLAVSLGQRATISCRASESVDSYGNSFMHWYQQKPGQPPKLLIYLASNLESGVPARFSGSGSRTDFTLTIDPVEADDAATYYCQQNNEDPYTFGGGTKLEIK"
0.2,10.3,95.5,2.1,124,81.9,63.8,83.6,86.9,"3C10 (antibody, human IgG4, V domains shown, chimeric human IgG4 (S-to-P, L-to-E at 248), human CL; also called Parental 3C10) VH: EVQLQQSGAELVRPGASVTLSCKASDYTFTDSEIHWVKQTPVHGLEWIGEIDPETGGTAYNQKFKGKATLTADKSSSTAYMELRSLTSEDSAVYYCSRETDYFFDYWGQGTTLTVSS VL: DVVMTQTPAIMSASPGEKVTMTCSASSSVSYMYWYQQKPGSSPRLLIYDTSNLASGVPVRFSGSGSGTSYSLTISRMEAEDAATYYCQQWSSYPLTFGAGTKLELK"

# Reference: US20230035798A1 (CAPELLA BIOSCIENCE, published 2023)
